Where “and” joins values, the source holds several entries; their conditions need not be identical. Equal values may be shown once.

Test [1] concerns the target T1, CD44/HCELL (hematopoietic cell E- and/or L-selectin ligand) (human (endogenous in KG1a), UniProt P16070-12 21-361). Description: SPR.
In test [2] the target is T1, CD44/HCELL (hematopoietic cell E- …). Description: SPR. The source holds these as a separate data set. (In general: SPR reads the build-up and loss of mass on a sensor chip optically.)

T1 sequence (P16070 other isoform, or with tags, fused parts or gaps): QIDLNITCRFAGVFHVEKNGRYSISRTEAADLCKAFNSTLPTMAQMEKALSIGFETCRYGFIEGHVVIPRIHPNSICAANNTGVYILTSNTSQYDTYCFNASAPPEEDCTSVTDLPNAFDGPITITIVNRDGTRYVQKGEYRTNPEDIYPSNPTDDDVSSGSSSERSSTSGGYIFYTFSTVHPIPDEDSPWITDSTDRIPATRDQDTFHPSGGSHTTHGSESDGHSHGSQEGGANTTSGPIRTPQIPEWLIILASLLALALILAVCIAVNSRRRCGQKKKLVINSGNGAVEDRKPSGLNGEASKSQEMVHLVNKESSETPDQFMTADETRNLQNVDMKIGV

B1: E-S6 (monomeric full-length extracellular mouse E-selectin) (domain or fragment)
chain: WYYNASSELMTYDEASAYCQRDYTHLVAIQNKEEINYLNSNLKHSPSYYWIGIRKVNNVWIWVGTGKPLTEEAQNWAPGEPNNKQRNEDCVEIYIQRTKDSGMWNDERCNKKKLALCYTASCTNASCSGHGECIETINSYTCKCHPGFLGPNCEQAVTCKPQEHPDYGSLNCSHPFGPFSYNSSCSFGCKRGYLPSSMETTVRCTSSGEWSAPAPACHVVECEALTHPAHGIRKCSSNPGSYPWNTTCTFDCVEGYRRVGAQNLQCTSSGIWDNETPSCKAVTCDAIPQPQNGFVSCSHSTAGELAFKSSCNFTCEQSFTLQGPAQVECSAQGQWTPQIPVCKAVQCEALSAPQQGNMKCLPSASGPFQNGSSCEFSCEEGFELKGSRRLQCGPRGEWDSKKPTCSAVKCDDVPRPQNGVMECAHATTGEFTYKSSCAFQCNEGFSLHGSAQLECTSQGKWTQEVPSCQVVQCPSLDVPGKMNMSCSGTAVFGTVCEFTCPDDWTLNGSAVLTCGATGRWSGMPPTCEAPVSPTRP
B1 displayed a Kd in test [1] of 1.7 µM. Also, the koff in test [2] was 0.000225 s⁻¹ and 0.00014 s⁻¹.

B2: E-S0 (mouse E-selectin lectin and EGF domains, no SCR domains) (domain or fragment)
chain: WYYNASSELMTYDEASAYCQRDYTHLVAIQNKEEINYLNSNLKHSPSYYWIGIRKVNNVWIWVGTGKPLTEEAQNWAPGEPNNKQRNEDCVEIYIQRTKDSGMWNDERCNKKKLALCYTASCTNASCSGHGECIETINSYTCKCHPGFLGPNCEQ
The molecule B2 returned a Kd in test [1] of 18.7 µM. Besides, the koff in test [2] is 5e-05 s⁻¹ and 7e-05 s⁻¹.

B3: E-S2-A28H (E-S2 with the A28H mutation in the lectin domain) (domain or fragment)
chain: WYYNASSELMTYDEASAYCQRDYTHLVHIQNKEEINYLNSNLKHSPSYYWIGIRKVNNVWIWVGTGKPLTEEAQNWAPGEPNNKQRNEDCVEIYIQRTKDSGMWNDERCNKKKLALCYTASCTNASCSGHGECIETINSYTCKCHPGFLGPNCEQAVTCKPQEHPDYGSLNCSHPFGPFSYNSSCSFGCKRGYLPSSMETTVRCTSSGEWSAPAPACHVVECEALTHPAHGIRKCSSNPGSYPWNTTCTFDCVEGYRRVGAQNLQCTSSGIWDNETPSCKA
Turning to B3, in test [1], the Kd came out at 1.19 µM. In addition, the koff in test [2] was 0.0002 s⁻¹ and 0.00011 s⁻¹.

B4: E-S2 (truncated mouse E-selectin with only the first two SCR domains) (domain or fragment)
chain: WYYNASSELMTYDEASAYCQRDYTHLVAIQNKEEINYLNSNLKHSPSYYWIGIRKVNNVWIWVGTGKPLTEEAQNWAPGEPNNKQRNEDCVEIYIQRTKDSGMWNDERCNKKKLALCYTASCTNASCSGHGECIETINSYTCKCHPGFLGPNCEQAVTCKPQEHPDYGSLNCSHPFGPFSYNSSCSFGCKRGYLPSSMETTVRCTSSGEWSAPAPACHVVECEALTHPAHGIRKCSSNPGSYPWNTTCTFDCVEGYRRVGAQNLQCTSSGIWDNETPSCKA
In the case of B4, the koff in test [2] is 0.00016 s⁻¹ and 0.00014 s⁻¹.

As usually defined, the Kd is the constant that tells how readily two partners part at equilibrium. A high value points to weaker binding. Usually koff stands for the rate constant with which the complex falls apart. Lower therefore signals slow dissociation.

The values are drawn from PMC7076219 (2020).
